Our source for the percent of the population as dimer and percent of the population as trimer values is doi:10.1101/2021.04.13.439655.

The test concerns the target full-length Smad2, wild type (S2FLWT), Q15796. As to the kind of experiment: SAXS with ensemble optimization method. To be noted: remark: other sources report otherwise.

B1: full-length Smad2, wild type (S2FLWT), Q15796 1-467 (natural protein)
chain: MSSILPFTPPVVKRLLGWKKSAGGSGGAGGGEQNGQEEKWCEKAVKSLVKKLKKTGRLDELEKAITTQNCNTKCVTIPSTCSEIWGLSTPNTIDQWDTTGLYSFSEQTRSLDGRLQVSHRKGLPHVIYCRLWRWPDLHSHHELKAIENCEYAFNLKKDEVCVNPYHYQRVETPVLPPVLVPRHTEILTELPPLDDYTHSIPENTNFPAGIEPQSNYIPETPPPGYISEDGETSDQQLNQSMDTGSPAELSPTTLSPVNHSLDLQPVTYSEPAFWCSIAYYELNQRVGETFHASQPSLTVDGFTDPSNSERFCLGLLSNVNRNATVEMTRRHIGRGVRLYYIGGEVFAECLSDSAIFVQSPNCNQRYGWHPATVCKIPPGCNLKIFNNQEFAALLAQSVNQGFEAVYQLTRMCTIRMSFVKGWGAEYRRQTVTSTPCWIELHLNGPLQWLDKVLTQMGSPSVRCSSMS
Molecule B1 returned a percent of the population as dimer at 56 μM of 18%, a percent of the population as trimer at 13.8 μM of 1% and a percent of the population as trimer at 56.1 μM of 16.4%.
